Reference: patent US6747136 (KAROLINA INNOVATIONS, dated 2004)

Assays:
tetanus toxoid [1] = target: T1, tetanus toxoid (UniProt P04958 2-1315); assay: ELISA, […] (100 ug/ml) […]
T1 construct: also called TT

tetanus toxoid [2] = target: T1, tetanus toxoid; assay: ELISA, coated tetanus toxoid 1 ug/ml

T1 sequence (P04958 2-457 limits assumed, chain 1 of 2): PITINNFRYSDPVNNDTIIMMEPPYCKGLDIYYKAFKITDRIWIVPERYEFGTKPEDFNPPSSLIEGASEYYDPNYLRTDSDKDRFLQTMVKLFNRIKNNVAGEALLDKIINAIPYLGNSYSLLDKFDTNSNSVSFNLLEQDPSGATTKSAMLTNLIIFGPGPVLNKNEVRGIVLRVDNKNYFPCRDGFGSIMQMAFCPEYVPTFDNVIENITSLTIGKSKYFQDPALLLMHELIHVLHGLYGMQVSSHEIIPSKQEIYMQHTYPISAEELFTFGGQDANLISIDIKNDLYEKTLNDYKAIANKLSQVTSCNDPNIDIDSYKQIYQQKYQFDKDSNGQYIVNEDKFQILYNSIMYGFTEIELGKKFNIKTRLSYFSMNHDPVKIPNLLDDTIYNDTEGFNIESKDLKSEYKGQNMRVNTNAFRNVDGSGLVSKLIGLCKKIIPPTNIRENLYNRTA
T1 sequence (P04958 458-1315 limits assumed, chain 2 of 2): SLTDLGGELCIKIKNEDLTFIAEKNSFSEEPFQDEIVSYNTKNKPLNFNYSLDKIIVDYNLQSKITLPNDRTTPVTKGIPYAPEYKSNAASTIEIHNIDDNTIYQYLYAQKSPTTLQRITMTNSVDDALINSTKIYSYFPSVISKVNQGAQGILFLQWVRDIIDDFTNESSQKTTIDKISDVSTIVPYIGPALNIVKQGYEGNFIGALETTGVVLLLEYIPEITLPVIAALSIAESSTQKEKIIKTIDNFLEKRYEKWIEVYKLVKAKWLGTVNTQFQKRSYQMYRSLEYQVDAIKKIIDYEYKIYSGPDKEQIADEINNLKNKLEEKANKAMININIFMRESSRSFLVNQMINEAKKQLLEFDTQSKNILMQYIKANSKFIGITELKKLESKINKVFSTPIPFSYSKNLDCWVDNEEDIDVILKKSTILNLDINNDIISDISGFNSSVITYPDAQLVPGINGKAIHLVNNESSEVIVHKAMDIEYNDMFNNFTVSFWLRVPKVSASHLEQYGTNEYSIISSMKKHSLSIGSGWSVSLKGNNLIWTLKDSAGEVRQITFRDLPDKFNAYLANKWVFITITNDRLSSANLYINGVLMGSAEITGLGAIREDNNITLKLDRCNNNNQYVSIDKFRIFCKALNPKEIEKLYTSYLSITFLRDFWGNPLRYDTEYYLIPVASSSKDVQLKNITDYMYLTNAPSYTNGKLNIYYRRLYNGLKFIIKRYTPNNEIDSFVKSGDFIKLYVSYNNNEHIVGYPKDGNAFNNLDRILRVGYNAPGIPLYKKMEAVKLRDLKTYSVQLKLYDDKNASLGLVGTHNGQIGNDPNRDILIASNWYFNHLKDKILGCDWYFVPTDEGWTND

B1: Fab molecule clone L3 (Fab, V domains shown)
VH: EVQLLESGGGVVQPGRSLRLSCAASGFTFKTYGMHWVRQAPGKGLEWVAGISFDGSNQYYADSVKGRFIVSRDNSRDTVFLQMSSLRLEDTAVYYCATEGSPFGSIKGRYYLENWGQGTLVTVSS
VL: AELTQSPATLSVSPGERASLSCRASQSVGNNLAWYQQKPGQAPRLLIYGGNTRATGTPDRFSGSGSGTEFTLTISSLQSEDFAVYFCQHYSTWPLTFGGGTKVEFK
B1 was tested, and the “OD405 nm (ELISA reactivity)” value (tetanus toxoid [1]) was 0.313 OD405 nm and the binding result (tetanus toxoid [2]) was “no binding”.

B2: Fab molecule clone 1:5 (Fab, V domains shown)
VH: VQLLEQSGAEVRKPGSSVKVSCKASGGTFSGHVITWVRQAPGQGLEWMGESIPIFGSANYAQNYAQKFRDRVSIIADESTSTSFIELSNLRSDDTAVYYCARDPPRYCSAGRCYPGFFQQWGQGTLVTVSS
VL: AELTQSPGTLSLSPGERATLSCRASQSVSSNYLAWYQQRPGQAPRLLIYGASSRATGIPDRFSGSGSGTDFTLTISRLEPEDFAVYYCQLYGNSRWTFGQGTKVEIK
B2: no binding (tetanus toxoid [2]).
